Measured values published in patent US20060235215A1 (published 2006).

Each binder was assayed against T1, Elicitor responsive protein, bait fragment aa 50-145 (Oryza sativa, UniProt Q0JBH9 50-144) (assay: yeast two-hybrid).
T1 construct: bait; also called OsERP; PN20696
T1 sequence: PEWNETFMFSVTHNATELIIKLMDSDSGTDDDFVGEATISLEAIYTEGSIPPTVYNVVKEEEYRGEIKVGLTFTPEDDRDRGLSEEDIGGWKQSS

Binder	binding result
Pectinesterase-like PN30845, prey clone aa 1-64 (other, prey; AD fusion; input trait library) GDQGRTYLFRVSNVGVKTSVNVRIQGHSLRLVEVEGTHPVQNVYDSLDVHVGQSVAFLVTLDKA	binds
NAD(P) binding domain protein PN30868, prey clone aa 167-336 (other, prey; AD fusion; input trait library) YNELAQLRAGKSSKSKLLIAKFKSPKSLNGWEVDQGSYFPNTFASRFDEGIDASFDFSEAGQAVFSGFVFTRGGYVEISKRLSLPLGSTLDRYDGLLFSVGGNGRSYVVILETGPLADTSQSKKYFARMTTKVGFCRVRVPFSAFRPVNPQDPPLDPFLVHTLTIRFEPK	binds
Isp-4 like PN30870, prey clone aa 1-446 (other, prey; AD fusion; input trait library) GEEDEHPHEGRAGVERRRQHVVVLLPPPLAVLEHEVVEDGARDEPARDVGRRRRRHPGEPVGDDGDVDERDPLLLRERPAEQPHRHGQHGAGEEQPHQVAVQAVAAEQPGGADEPPDHRRVERDPVLGARPRAVRVQRLHVADVVDAAQHPPRHRQVHHAGDHRAHQLRRVHAPRRDLHVVPQLEVREERQRVHRADPPVDLEQQVRDRLPRQRVPDHELRDDVVPRLLVGGGLDDADGEGDDEGEGEGEEHPPPRQLHLLPVHERHDQRHGDAADEQHEEPPLRHLLVPPHQLRVHVHLRRRGAHRRPALPPDVPAVEQRHVHDRRREPQEPGPDGDGEQRAQVQLPVALVRRHVEVELPREHLGGVVLLPGRREQLVGEDWELPRVERVELPVAERHDEVDEHDEARGGVGDGRPRRHQRAPVVRRDAGPVQCEGADAEAVVAG	binds
Ubiquitin specific protease-like PN30843, prey clone aa 164-221 (other, prey; AD fusion; input trait library) RALQNFTAEELLDGGEKQYQCQRCRKKVVAKKKFTIDKAPYVLTIHLKRFSPFNPREK	binds
Novel protein PN30857, prey clone aa 1-148 (other, prey; AD fusion; input trait library) QDTRPLQAQRRRHGGGPQDRQREPSQGDFLRRQREEHPGGEEDRAPHGAGGHAAAGEGRGPRAGEHPQHQGGAAGAVGGGREGGGRAHLLRPRRHRDIGDRVGHTYCLSRLRRIAQNEQPSIHPCPSLAGQVIIRWEFRIGRDNNTFQ	binds
SSGTTSRPTASRTQQTKGRLTVTISLKAYSPGRTRSG (other, prey; AD fusion; input trait library) [Novel Protein PN29984, prey clone aa 5-41]	binds
APSSSSGTTSRPTASRTQQTKGRLTVTISLKAYSPGRT (other, prey; AD fusion; input trait library) [Novel Protein PN29984, prey clone aa 1-38]	binds
Novel protein PN29983, prey clone aa 1-131 (other, prey; AD fusion; input trait library) GVETVVTDTAGNKVVVTGAADAAELKERIEARTKKAVQIVSAGAGPPPKKDKEEKKDKDKKGGGDDKKAEKEKGGGGGDKKAEKEKGGGDKPKEEKKAKEPKEETVTLKIRLHCEGCIDRIKRRICKIKGG	binds
Novel protein PN30844, prey clone aa 1-64 (other, prey; AD fusion; input trait library) VAVRKKETRDGAMQTMPSRVQQGAADFEETLFVRCHLYCSGGAGTGKPLRFEPRPFLLSAVAVE	binds

Target: T2, O. sativa Chilling-Inducible Protein CAA90866, bait clone aa 100-250 (Oryza sativa)
T2 construct: bait; also called OsCAA90866; PN20311
T2 chain: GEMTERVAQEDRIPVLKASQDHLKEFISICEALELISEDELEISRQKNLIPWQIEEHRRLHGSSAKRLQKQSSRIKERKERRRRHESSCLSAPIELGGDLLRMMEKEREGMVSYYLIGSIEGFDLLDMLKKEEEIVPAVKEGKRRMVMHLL
Assay: yeast two-hybrid

Binder	binding result
O. sativa Putative Pyrrolidone Carboxyl Peptidase, prey clone aa 92-222 (other, prey; AD fusion; input trait library; two clones; also called OsAAG46136; PN23186) FGVNSGTTRFALENQAINEATFRCPDELGWKPQRAPIVSSDGSISNLRKTTVPVNEVNKSLQQMGFDVAPSDDAGRFVCNYVYYQSLRFAEQRGIKSLFVHFPLFTTISEEVQMNFVATLLEVLASQNYAQ	binds
ILSKLVQAKELLKEYVEREKKKREERSETPKSNEAVTKFDGSLNSMRH (other, prey; AD fusion; input trait library; two clones; also called OsPN23045) [Novel Protein PN23045, prey clone aa 240-287]	binds
Novel Protein PN29883, Fragment, prey clone aa 58-175 (other, prey; AD fusion; output trait library; also called OsPN29883) YGQLKAAQPFFLLAGPNVIESEEHVLKMAKHIKGITTKLGLPLVFKSSFDKANRTSSKSFRGPGLEEGLKILEKVKATYDIPVVTDVHESHQCEAAGRVADIIQIPAFFCRQTDLLVA	binds
O. sativa Chilling-Inducible Protein CAA90866, prey clone aa 1-126 (other, prey; AD fusion; output trait library; also called OsCAA90866; PN20311) MVEVEEVSNKMQVQMRLHPAAAAEEEDADLPLPALFDKASHLHSLASSSSLDQEGIRKGVDLLRRCDEMVSKVGLFSSNETKDDISTANLKYLLVPYYLGEMTERVAQEDRIPVLKASQDHLKEFI	binds
Hypothetical Protein ORF020300-2233.2, Putative PP2A Regulatory Subunit, Similar to OsCAA90866, prey clone aa 1-206 (other, prey; AD fusion; output trait library; three clones; also called OsORF020300-2233.2) MVEVEEVSNKMQAQMRLHPAAAAEEEDADLPLPALFDKASHLHSLASSSSLDQEGIRKGVDLLRRCDEMVSKLGLFSSNETKDDVSTANLKYLLVPYYLGEMTERVAQEDRIPVLKASQDHLKEFISICEALELISEDELELSRQKQPDTMANRRAQKAARFKRQKAAETKLLEIKERKERRRRSLRAAALSAPIEAGEEDAFEDD	binds
Novel Protein PN23225, Similar to Triticum aestivum Initiation Factor (iso)4f p82 Subunit, prey clone aa 639-792 (other, prey; AD fusion; input trait library; also called OsPN23225) FGIRILDEAQQCIEELQCPEYYSEIVKEAINLALDKGPNFIDPLVRLLEHLHTKKIFKTEDLKTGCLLYAALLEDIGIDLPLAPALFGEVVARLSLSCSLSFEVVEEILKAVEDTYFRKGIFDAVMKTMGGNSSGQAILSSHAVVIDACNKLLK	binds
Hypothetical Protein ORF020300-2233.2, Putative PP2A Regulatory Subunit, Similar to OsCAA90866, prey clone aa 1-190 (other, prey; AD fusion; output trait library; three clones; also called OsORF020300-2233.2) MVEVEEVSNKMQAQMRLHPAAAAEEEDADLPLPALFDKASHLHSLASSSSLDQEGIRKGVDLLRRCDEMVSKLGLFSSNETKDDVSTANLKYLLVPYYLGEMTERVAQEDRIPVLKASQDHLKEFISICEALELISEDELELSRQKQPDTMANRRAQKAARFKRQKAAETKLLEIKERKERRRRSLRAAA	binds

Each binder was assayed against T3, O. sativa Serine/Threonine Protein Phosphatase PP2A-2, Catalytic Subunit, bait fragment aa 1-308 (Oryza sativa, UniProt A2XN40 1-307) (assay: yeast two-hybrid).
T3 construct: bait; also called OsPP2A-2; PN20254
T3 sequence (A2XN40 whole entry, the tested form may be a part): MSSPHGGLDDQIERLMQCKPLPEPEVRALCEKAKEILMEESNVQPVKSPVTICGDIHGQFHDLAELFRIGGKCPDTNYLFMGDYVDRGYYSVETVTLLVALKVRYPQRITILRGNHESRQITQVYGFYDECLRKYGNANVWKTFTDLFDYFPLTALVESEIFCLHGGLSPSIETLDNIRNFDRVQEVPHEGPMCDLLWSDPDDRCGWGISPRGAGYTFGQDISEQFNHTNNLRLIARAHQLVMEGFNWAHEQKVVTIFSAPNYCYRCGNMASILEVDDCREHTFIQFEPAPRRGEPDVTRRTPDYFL

Binder	binding result
O. sativa Putative Proline-Rich Protein AAK63900, prey clone aa 122-224 (other, prey; AD fusion; input trait library; also called OsAAK63900; PN23266) AAVAGKTHYRSALCASVTICGPIKKKIIDHFHKKPVPPKPEPKPEPPKPKPEPEHPFLDHIHKKEKHFFDHFHKKPVPPKPEPKPEPKPQPAPEYHNPSPPAN	binds
Hypothetical Protein ORF020300-2233.2, Putative PP2A Regulatory Subunit, Similar to OsCAA90866, prey clone aa 118-388 (other, prey; AD fusion; input trait library; also called OsORF020300-2233.2) SQDHLKEFISICEALELISEDELELSRQKQPDTMANRRAQKAARFKRQKAAETKLLEIKERKERRRRSLRAAALSAPIEAGEEDAFEDDGEEEREAWLATISLALCKAFDLLDMLKKEEEMLLAVKERQAKDGNAFAREMLDERTKKAEAWHHNAANRAPYSKPADPITCATFAQDVIEGRASVSQAHEHKHQPLIFGPASLVGGGLTSERERMAAQVFQPSYRLPTMSIEEAGLREMKMMEKWQERTAKMIQESNSAWHKDGSRSAQEDE	binds
Hypothetical Protein ORF020300-2233.2, Putative PP2A Regulatory Subunit, Similar to OsCAA90866, prey clone aa 93-387 (other, prey; AD fusion; input trait library; also called OsORF020300-2233.2) LLVPYYLGEMTERVAQEDRIPVLKASQDHLKEFISICEALELISEDELELSRQKQPDTMANRRAQKAARFKRQKAAETKLLEIKERKERRRRSLRAAALSAPIEAGEEDAFEDDGEEEREAWLATISLALCKAFDLLDMLKKEEEMLLAVKERQAKDGNAFAREMLDERTKKAEAWHHNAANRAPYSKPADPITCATFAQDVIEGRASVSQAHEHKHQPLIFGPASLVGGGLTSERERMAAQVFQPSYRLPTMSIEEAGLREMKMMEKWQERTAKMIQESNSAWHKDGSRSAQED	binds
Novel Protein 23268, Similar to Phosphoribosylanthranilate Transferase, Chloroplast Precursor, Fragment, prey clone aa 12-200 (other, prey; AD fusion; input trait library; two clones; also called OsPN23268; Os23268) SEEEAEATLRLLLEEENEARIAAFLVLLRAKGETYEEIVGLAKAMIGCCVRVDGLDDAVDIVGTGGDGADTVNISTGSTILAAAAGAKVAKQGSRASSSACGSADGIKRCVNEVGVGFMMSANYHPAMKIVKPVRKKLKIKTVFNILGPLLNPARVPYAVIGVYHENIVTKMAKAAQKFGMKRALVVHS	binds
Novel Protein PN26645, Putative Protein Disulfide Isomerase-Related Protein Precursor, prey clone aa 24-164 (other, prey; AD fusion; input trait library; also called OsPN26645) PLPEACPVPTAAEEILGPGGTCTTLDRRGDPVGVIEGDEVTLAKAITLLHMNKDDYIAVLFYASWCPFSQECKPNFEILASLFPSIRHFAFEESSIRPSIISRYGIHGFPTLFLLNSTMRVRYHGPRTVKSLAAFYRDVSG	binds

Target: T4, O. sativa Chitinase, Class III, bait fragment aa 10-200 (Oryza sativa)
T4 construct: bait; also called OsCHIB1; PN19651
T4 chain: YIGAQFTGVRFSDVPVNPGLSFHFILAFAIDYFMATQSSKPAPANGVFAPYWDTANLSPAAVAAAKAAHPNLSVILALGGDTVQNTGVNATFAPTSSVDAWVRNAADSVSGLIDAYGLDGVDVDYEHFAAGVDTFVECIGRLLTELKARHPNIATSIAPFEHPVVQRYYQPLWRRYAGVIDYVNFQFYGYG
Assay: yeast two-hybrid
Protocol: Yeast carrying the target gene construct was combined with yeast carrying the activation domain library. The two yeast strains mated to form diploid yeast and were plated on media that selected for expression of one or more Ga14p-responsive reporter genes. Thus, both hybrid proteins (i.e., the target “bait” protein and the activation domain “prey” protein) were expressed in a yeast reporter strain where an interaction between the test proteins results in transcription of the reporter genes […]. Colonies that arose after incubation were selected for further characterization. The activation domain plasmid was isolated from each colony obtained in the two-hybrid search. The sequence of the insert in this construct was obtained by sequence analysis (e.g., Sanger's dideoxy nucleotide chain termination method; see Ausubel et al., 1988, including updates up to 2002). Thus, the identity of positives obtained from these searches was determined by sequence analysis against proprietary and public (e.g., GENBANK®) nucleic acid and protein databases.
This example provides newly characterized rice proteins interacting with a rice chitinase, class III (OsCHIB1), and with rice cellulose synthase catalytic subunit, RSW1-like (OsCS). An automated, high-throughput yeast two-hybrid assay technology (provided by Myriad Genetics Inc., Salt Lake City, Utah) was used to search for protein interactions with the chitinase and cellulose synthase bait proteins.

Binder	binding result
Novel Protein PN29041, Fragment, Similar to A. thaliana Putative ATPase, prey clone aa 5-108 (other, prey; AD fusion; input trait library; two clones; also called OsPN29041) VQIRRALRALVDDHTDGLMDFEDTEVRSSEETDALEEARLAIEQVVIPKGESVQLLPRPPSIIASQVDLVESFKLKWESIGQEPNACLRILPQFVGVEEGGKSV	binds
AVREPKRYYDPSPAYPAPYHQQTNRDPYAYGNTTTGGYGYAYG (other, prey; AD fusion; input trait library; also called OsPN22020) [Novel Protein PN22020, Fragment, Similar to A. thaliana Putative Protein, prey clone aa 128-170]	binds
Novel Protein PN22020, Fragment, Similar to A. thaliana Putative Protein, prey clone aa 76-170 (other, prey; AD fusion; input trait library; three clones; also called OsPN22020) ANATDGVKPLVGSARLPLRDVLADTGIGARASRSLRLKRPSGRPHGRLEVRVAVREPKRYYDPSPAYPAPYHQQTNRDPYAYGNTTTGGYGYAYG	binds
Novel Protein PN22823, Similar to ABC Transporter Proteins, prey clone aa 25-106 (other, prey; AD fusion; input trait library; also called OsPN22823) SSSGKKVPLFSLFRYADRLDVLLMVVGTVGALGNGISQPLMTVLFGNVINSFGANTSGSVLRSVTKVKVSCWTMAGERQSAR	binds
